Data: PMC4605427

Experiments:
[1] = molecular target: phosphorylated cytosolic domain of the TCR γ-chain (pCD3γCD) (UniProt P09693); experiment: BLI
[2] = molecular target: GST-pCD3γCD fusion protein (UniProt P09693); experiment: ELISA

Row | KD2 (weak set), fold against its KD1 [1] | koff1, ratio against AADN and tSH2 [1] | koff2 (weak set), fold against its koff1 [1] | kon1, fold against AADN and tSH2 [1] | kon2 (weak set), fold against its kon1 [1] | fold concentration needed, against YY, to compete similarly [2] | Kd [1] | Substance
1 | 10 fold | 0.5 fold | 20 fold | 2 fold | 2 fold | 3 fold |  | ZAP-70 phenylalanine mutant Y315/Y319F, kinase-dead (FFDN) (from UniProt P43403 1-619) (enzyme)
2 | 10 fold | 0.5 fold | 20 fold | 2 fold | 2 fold |  |  | kinase-dead D461N mutant of ZAP-70 (YYDN) (from UniProt P43403 1-619) (enzyme)
3 |  |  |  |  |  |  | 10 nM | recombinant tSH2 module of ZAP-70 (aa 1–256) (from UniProt P43403 1-256) (domain or fragment)
